Laboratory results published in paper PMC6048764, “Myricetin antagonizes semen-derived enhancer of viral infection (SEVI) formation and influences its infection-enhancing activity” (Retrovirology, 2018).

B1: SEM2_(86–107) (peptide, UniProt Q02383 86-107, looked up)
peptide: DLNALHKATKSKQHLGGSQQLL
notes: source: synthetic peptide (Scilight Biotechnology LLC, Beijing)
B2: PAP257–273 Leu268A (peptide, UniProt P15309 257-273, looked up)
peptide: RLQGGVLVNEIANHMKR
notes: source: synthetic peptide
B3: PAP257–273 Leu258A (peptide, UniProt P15309 257-273, looked up)
peptide: RAQGGVLVNEILNHMKR
notes: source: synthetic peptide
B4: PAP257–273 Arg273A (peptide, UniProt P15309 257-273, looked up)
peptide: RLQGGVLVNEILNHMKA
notes: source: synthetic peptide
B5: PAP257–273 GIn259A (peptide, UniProt P15309 257-273, looked up)
peptide: RLAGGVLVNEILNHMKR
notes: source: synthetic peptide
B6: SEM1_(86–107) (peptide, UniProt P04279 86-107, looked up)
peptide: DLNALHKTTKSQRHLGGSQQLL
notes: as for B1

Target: the molecule itself
Assay: thioflavin T fluorescence; amyloid fibril formation; peptide 3 mg/ml agitated at 1400 rpm at 37 °C for 48 h, without myricetin

Protein	binding result
B1	binds
B2	binds
B3	binds
B4	binds
B5	binds
B6	binds
